According to paper PMC8364233:
Values belong to the molecule of their own block, whether it stands above or below them.

How the values were obtained:
[1] = target: MBP-LjNLP4 (564–976) (Lotus japonicus); assay: SEC-MALS
[2] = target: MBP-LjNIN (551–878) (Lotus japonicus); assay: SEC-MALS
MBP-LjNLP4 (564-976) = MBP-LjNLP4 (564-976) (Lotus japonicus, UniProt A0A2Z5V8A6 564-976); assay: EMSA
MBP-LjNIN (551-878) = MBP-LjNIN (551-878) (Lotus japonicus, UniProt Q9S7B1 551-878); assay: EMSA
[3] = target: MBP-LjNLP4 (564-976);Trx-His-LjNIN (551-878) (Lotus japonicus;Lotus japonicus, UniProt A0A2Z5V8A6;Q9S7B1 564-976;551-878, |); assay: EMSA

- stoichiometry N [1]: 2
Molecule: MBP-LjNLP4 (564–976) (domain or fragment)

- stoichiometry N [2]: 2
Molecule: MBP-LjNIN (551–878) (domain or fragment)

B1: LjNIR1pro (dsDNA)
DNA 1: CAAACACGACCCTTTGTCACAACCAAAGGTCCATTGTA
DNA 2: TACAATGGACCTTTGGTTGTGACAAAGGGTCGTGTTTG
- binding result (MBP-LjNLP4 (564-976)): binds
- binding result (MBP-LjNIN (551-878)): binds

B2: CLE-RS2pro (dsDNA)
DNA 1: TGAGTTCTGACCCTTAAGCCTTGGAAAGGACAGTCATG
DNA 2: CATGACTGTCCTTTCCAAGGCTTAAGGGTCAGAACTCA
- binding result (MBP-LjNLP4 (564-976)): binds
- binding result (MBP-LjNIN (551-878)): binds

B3: LjNF-YBpro (dsDNA)
DNA 1: TTTACTTGTATCTTTAGAGCTTTCCAAGGGATATTTCA
DNA 2: TGAAATATCCCTTGGAAAGCTCTAAAGATACAAGTAAA
- binding result [3]: binds
- binding result (MBP-LjNLP4 (564-976)): no binding
- binding result (MBP-LjNIN (551-878)): binds
